Drawing on PMC2605707, this text covers stoichiometry N for one substance.

The target in the test is RDE-4 variant R2C (dsRBM2 and C-terminus) (C. elegans). As to the kind of experiment: SEC. A general note: Size exclusion chromatography separates by hydrodynamic size, large species first.

For the substance “RDE-4 variant R2C (dsRBM2 and C-terminus) (domain or fragment)”, the stoichiometry N (commonly a count of units in the complex or per binding partner) came out at 2.
